Reference: patent US20200362047A1 (CRESCENDO BIOLOGICS, published 2020)
Blank lines part the entries; values can stand above or below the binder they belong to.

What was measured:
[1] = target: T1, human PSMA expressed on cells (human, UniProt Q04609 1-750); test: FMAT, DU145 PSMA cells
T1 construct: One molecule for both cell lines (CHO human PSMA, DU145 PSMA); the cell line stands under assay; also called CHO human PSMA; CHO PSMA
Protocol: (§1) Binding of His-tagged molecules to CHO human CD137, CHO parent, CHO human PSMA, DU145 PSMA and DU145 parent cells was assessed using Fluorescence Microvolume Assay Technology (FMAT). All reagents were prepared in FMAT assay buffer (pH 7.4) containing PBS, 0.1% Bovine Serum Albumin, 0.05% Sodium Azide. Serially diluted samples were transferred into 384 well black clear-bottomed assay plates (Costar cat. no. 3655) and incubated for a minimum of 2 hours at room temperature with 1.5 nM Anti-His (Millipore cat. no. 05-949), […] Goat Anti-Mouse Alexa Fluor-488 (Jackson ImmunoResearch cat. no. 115-545-071) and 2000 cells/well pre-stained with DRAQ5 (Thermo Scientific cat. no. 62251). Fluorescence emission was then measured on the TTP Mirrorball plate reader in the FL2 (502 nm-537 nm) and FL5 (677-800 nm) channels following excitation at 488 nm and 640 nm. Data was gated on FL5 perimeter and peak intensity and the FL2 median mean fluorescence intensity of the gated data used for determination of VH binding. Monovalent CD137 specific Humabody® VH, bispecific and trispecific molecules with a CD137 binding arm bound to CHO CD137 expressing cells. Monovalent PSMA specific Humabody® VH, bispecific and trispecific molecules with a PSMA binding arm bound to PSMA expressing cells.

[2] = target: T2, human CD137 expressed on the surface of CHO cells (human, UniProt Q07011 24-255); test: FMAT, CHO human CD137 cells
T2 construct: Also used for the Jurkat reporter cells that express human CD137 (functional rows); also called CHO human CD137 cells; CHO huCD137
Protocol: as §1

[3] = target: T1, human PSMA expressed on cells; test: FMAT, CHO human PSMA cells
Protocol: as §1

[4] = target: T3, CD137 on pre-stimulated human CD8+ T cells (human, UniProt Q07011 24-255); test: flow cytometry, PMA/ionomycin-stimulated human CD8+ T cells, mean of 2-3 donors
T3 construct: also called pre-stimulated CD8+ cells; primary T cells
Protocol: Binding to primary T cells was measured using flow cytometry. Peripheral blood mononuclear cells (PBMCs) were isolated from human blood by density gradient centrifugation then CD8+ T cells purified using a negative selection isolation kit according to the manufacturer's protocol (Miltenyi Biotech cat no 130-042-401). T-cells were stimulated PMA/Ionomycin for 48-72 hours in RPMI media supplemented with 10% FBS, 2 mM Glutamine, 1× Pen/Strep. Cells were transferred into 96 well plates, blocked for 10 mins with staining buffer (PBS/1% BSA/0.05% Sodium Azide) then incubated with serially diluted VH in staining buffer (PBS/1% BSA) for 30 mins-1 hour at 4° C. Cells were washed by centrifugation then VH binding detected using Anti His antibody (Millipore 05-949) and Goat Anti Mouse Alexa Fluor-488 (Jackson ImmunoResearch cat no. 115-545-071). A Live Dead near IR stain (Molecular Probes cat no. L10119) was used for discrimination of live cells. After further washing cells were fixed and fluorescence measured by flow cytometry.

[5] = target: T4, mouse CD137Fc protein (Acro Biosystems 41B-M5258) (mouse, UniProt P20334 24-187); test: HTRF binding assay
T4 construct: Bought protein; also called mouse CD137 protein; not shown: Fc tag, detected with anti human-Fc
T4 sequence (looked up): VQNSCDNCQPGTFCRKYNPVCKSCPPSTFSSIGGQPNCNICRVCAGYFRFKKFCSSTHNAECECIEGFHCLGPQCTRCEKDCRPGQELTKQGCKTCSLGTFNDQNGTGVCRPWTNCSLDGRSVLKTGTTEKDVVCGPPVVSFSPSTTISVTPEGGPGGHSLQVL
Protocol: (§2) Binding to human CD137Fc recombinant protein (Acro Biosystems 41B-H5258), rhesus CD137Fc recombinant protein (Sino Biologicals cat no. 90847-K02H) and mouse CD137Fc protein (Acro Biosystems 41B-M5258) was measured using an HTRF Binding assay format. All reagents and serially diluted VH were prepared in assay buffer containing PBS, 0.1% BSA and 0.4M Potassium Fluoride. Samples or assay buffer (non-specific binding) were incubated with 0.5 nM human, rhesus or mouse CD137, 1 nM Anti human-Fc Cryptate PAb (Cisbio cat. no. 61HFCKLB) and 20 nM anti His-D2 (CisBio cat no 61HISDLA) in black 384-shallow well assay plates for a minimum of 3 hours at room temperature. Time-resolved fluorescent emission at 620 nm and 665 nm was measured following excitation at 337 nm on the BMG PHERAstar plate reader. The HTRF ratio were calculated ((665 nm emission/620 nm emission)*10000) and the data corrected for (non-specific binding) to give the specific binding signal. VH bound to human and rhesus CD137 but not to mouse CD137 protein.

[6] = target: T5, human CD137-human Fc chimeric protein (Acro Biosystems cat no. 41B-H5258) (human, UniProt Q07011 24-186); test: HTRF binding assay
T5 construct: Bought protein; The Octet Protein G and Biacore experiments name no catalogue number; also called human CD137Fc recombinant protein; human CD137-Fc recombinant protein; not shown: human IgG1 Fc tag
Protocol: as §2

[7] = target: T6, rhesus CD137Fc recombinant protein (Sino Biologicals cat no. 90847-K02H) (rhesus; human, UniProt H9Z8K9 24-186); test: HTRF binding assay
T6 construct: Bought protein; also called rhesus CD137-human IgG1 Fc tagged protein; not shown: human IgG1 Fc tag
T6 sequence: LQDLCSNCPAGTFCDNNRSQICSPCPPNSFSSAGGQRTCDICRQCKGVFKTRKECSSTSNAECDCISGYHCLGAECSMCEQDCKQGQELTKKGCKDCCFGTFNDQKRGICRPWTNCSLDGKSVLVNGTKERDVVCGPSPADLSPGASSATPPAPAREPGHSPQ
Protocol: as §2

[8] = target: T7, human OX40-Fc (R&D Systems cat no. 3388-OX) (human, UniProt P43489 29-216); test: ELISA, coated OX40-Fc
T7 construct: Bought protein; not shown: Fc tag
T7 sequence (looked up): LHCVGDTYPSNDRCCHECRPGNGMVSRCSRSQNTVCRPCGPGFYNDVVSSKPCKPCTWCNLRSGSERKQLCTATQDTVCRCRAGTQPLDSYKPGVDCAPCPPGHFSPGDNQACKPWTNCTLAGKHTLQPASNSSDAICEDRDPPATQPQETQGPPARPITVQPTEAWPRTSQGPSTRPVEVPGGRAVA
Protocol: (§3) Specificity of binding for CD137 over the tumour necrosis factor receptor family members OX40 and GITR (Glucocorticoid-induced TNFR-related) was determined using an ELISA assay. Nunc Maxisorp plates were coated with 1 ug/ml human CD137-Fc recombinant protein (Acro Biosystems 41B-H5258), human GITR-Fc (R&D Systems cat no. 689-GR) human OX40-Fc (R&D Systems cat no. 3388-OX) in sodium carbonate buffer overnight at 4° C. then washed twice with PBS. Non-specific protein interactions were blocked by incubation with 1% (w/v) skimmed milk powder (Marvel®) in PBS/0.1% Tween-20 for 1 hour at room temperature. Plates were washed twice with PBS then VH or antibody control (1 ug/ml) added for 1 hour at room temperature. Following three washes with PBS/0.1% Tween-20 a 1:1000 dilution of anti His-HRP (VH detection) or anti mouse-HRP (positive control mouse monoclonal antibody detection) was added in 1% Marvel/PBS/0.1% Tween-20. The detection antibodies were allowed to bind for 1 hour at room temperature then the plates were washed twice in PBS/0.1% Tween-20 and once in PBS. The ELISA was developed using TMB substrate and the reaction was stopped by the addition of 50 ul 0.5M H₂SO₄ solution. The absorbance at 450 nm was measured using the BMG Pherastar.

[9] = target: T8, human GITR-Fc (R&D Systems cat no. 689-GR) (human, UniProt Q9Y5U5 26-161); test: ELISA, coated GITR-Fc
T8 construct: Bought protein; also called GITR (Glucocorticoid-induced TNFR-related); not shown: Fc tag
T8 sequence (looked up): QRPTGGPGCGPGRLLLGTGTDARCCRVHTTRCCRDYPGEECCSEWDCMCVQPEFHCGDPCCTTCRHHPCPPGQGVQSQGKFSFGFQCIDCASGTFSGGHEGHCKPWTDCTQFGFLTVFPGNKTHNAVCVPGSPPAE
Protocol: as §3

[10] = target: T9, PSMA-his (R&D Systems cat no. 4234-ZN) (human, UniProt Q04609 44-750); test: BLI (Octet RED384), PSMA-his amine-coupled to AR2G sensors, 1:1 model
T9 construct: Bought protein; also called Human PSMA; not shown: His tag
Protocol: The kinetics of monovalent and bispecific Humabody VH were determined on a ForteBio Octet RED 384 instrument. To study the interaction with the antigens, CD137-Fc tag protein (Acro Biosystems cat no. 41B-H5258) or PSMA-his (R&D Systems cat no. 4234-ZN) was immobilised onto AR2G biosensors (ForteBio cat no. 18-5082) by amine coupling. Monovalent VH and bispecific molecules were serially diluted (typically 1:2 dilution series starting between 12-25 nM, at the highest concentration) in kinetics buffer (0.1% BSA, 0.02% Tween, 1×PBS) and binding to the immobilised proteins was studied during the association and dissociation phases. PSMA binding was measured using 180 seconds association and 600 seconds dissociation phases. CD137 binding was measured 180 seconds association and 600 seconds dissociation phases. Reference subtracted data were fitted to a 1:1 binding model using the ForteBio Octet Data Analysis software.

T9 sequence (Q04609 44-750 limits assumed): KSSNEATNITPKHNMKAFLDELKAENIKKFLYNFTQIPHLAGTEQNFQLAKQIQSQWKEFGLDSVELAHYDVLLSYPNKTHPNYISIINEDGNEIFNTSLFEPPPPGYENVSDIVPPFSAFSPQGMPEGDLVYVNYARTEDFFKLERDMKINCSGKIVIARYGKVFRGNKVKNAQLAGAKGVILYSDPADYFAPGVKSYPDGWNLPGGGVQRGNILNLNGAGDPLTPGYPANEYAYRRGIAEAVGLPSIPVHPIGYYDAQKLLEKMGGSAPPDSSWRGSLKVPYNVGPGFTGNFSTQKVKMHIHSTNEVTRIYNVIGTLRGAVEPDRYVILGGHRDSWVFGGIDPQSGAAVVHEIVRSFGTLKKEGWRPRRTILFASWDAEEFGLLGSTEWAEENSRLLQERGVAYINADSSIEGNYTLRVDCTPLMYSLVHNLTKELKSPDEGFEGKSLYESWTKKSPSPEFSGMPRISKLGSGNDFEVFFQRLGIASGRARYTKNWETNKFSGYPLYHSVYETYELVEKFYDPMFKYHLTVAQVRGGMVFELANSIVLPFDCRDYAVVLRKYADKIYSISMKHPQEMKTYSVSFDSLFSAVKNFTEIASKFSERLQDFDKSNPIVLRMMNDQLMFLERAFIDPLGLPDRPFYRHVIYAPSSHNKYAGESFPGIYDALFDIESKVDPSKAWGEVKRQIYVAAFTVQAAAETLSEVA
T1 sequence (Q04609 whole entry): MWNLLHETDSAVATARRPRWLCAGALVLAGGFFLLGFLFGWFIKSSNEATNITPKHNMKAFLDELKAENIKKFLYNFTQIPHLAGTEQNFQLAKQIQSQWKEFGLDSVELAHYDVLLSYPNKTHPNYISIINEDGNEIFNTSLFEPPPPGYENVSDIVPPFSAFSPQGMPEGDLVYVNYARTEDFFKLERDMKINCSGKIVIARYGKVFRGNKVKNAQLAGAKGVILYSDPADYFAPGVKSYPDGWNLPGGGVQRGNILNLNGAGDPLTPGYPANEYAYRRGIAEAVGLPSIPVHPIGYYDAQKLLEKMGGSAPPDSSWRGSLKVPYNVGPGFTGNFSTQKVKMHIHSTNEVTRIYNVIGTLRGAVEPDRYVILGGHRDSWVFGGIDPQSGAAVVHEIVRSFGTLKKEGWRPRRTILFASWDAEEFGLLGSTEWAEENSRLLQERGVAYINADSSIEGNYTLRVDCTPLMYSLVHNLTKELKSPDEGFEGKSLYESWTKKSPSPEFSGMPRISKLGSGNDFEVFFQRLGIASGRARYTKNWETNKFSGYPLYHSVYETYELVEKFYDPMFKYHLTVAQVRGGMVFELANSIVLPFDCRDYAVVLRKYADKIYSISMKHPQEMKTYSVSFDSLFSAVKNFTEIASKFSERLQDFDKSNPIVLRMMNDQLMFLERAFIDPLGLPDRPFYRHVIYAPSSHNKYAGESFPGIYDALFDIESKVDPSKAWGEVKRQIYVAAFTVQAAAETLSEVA
T2 sequence (Q07011 24-255 limits assumed): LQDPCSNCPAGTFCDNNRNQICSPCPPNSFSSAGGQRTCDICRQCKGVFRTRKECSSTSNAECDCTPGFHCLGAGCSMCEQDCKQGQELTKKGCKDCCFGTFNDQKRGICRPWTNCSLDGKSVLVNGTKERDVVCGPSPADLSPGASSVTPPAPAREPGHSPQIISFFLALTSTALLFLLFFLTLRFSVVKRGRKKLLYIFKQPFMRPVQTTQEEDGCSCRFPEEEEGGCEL
T3 sequence (Q07011 24-255 limits assumed): as above

EC50 [1]: 0.36 nM | EC50 [2]: 0.58 nM | EC50 [3]: 0.32 nM
B1: 4.1-6GS-1.1-6GS-VH (MSA) (bispecific antibody)
chain: EVQLVESGGGVVQPGRSLRLSCAASGFSFSGYGMHWVRQAPGKGLEWVAYISYDGSNKYYADSVKGRFTISRDNSKNTLYLQMNSLRAEDTAVYYCAKDPAWGLRLGESSSYDFDIWGQGTMVTVSSGGGGSGGGGSGGGGSGGGGSGGGGSGGGGSEVQLVESGGGLVQPGGSLRLSCAASGFTFSSHWMTWFRQAPGKGLEWVAHIKEDGSEKYYEDSVEGRFTVSRDNAKNSVYLQMNSLRAEDTAVYYCARGGDGYSDSHFGVDVWGQGTTVTVSSGGGGSGGGGSGGGGSGGGGSGGGGSGGGGSQVQLVESGGGLVQPGGSLRLSCAASGFTFSSYAMSWVRQAPGKGLEWVATISDSGSSADYADSVKGRFTISRDNSKNTLYLQMNSLRAEDTAVYYCARGRYNWNPRALGIWGQGTMVTVSS
notes: trispecific tandem VH (PSMA, CD137, mouse serum albumin); also called 4.1-6GS-1.1-VH (MSA); 4.1-6GS-1.1-6GS-MSA; not shown: His tag

EC50 [4]: 0.74 nM | binding result [5]: no binding | EC50 [6]: 0.91 nM | EC50 [7]: 0.56 nM | binding result [8]: no binding (tested: 1 ug/ml) | binding result [9]: no binding (tested: 1 ug/ml) | EC50 [2]: 0.18 nM
B2: Humabody VH 2.2 (VHH)
VH: EVQLVESGGGLVKPGGSLRVSCAASGFTFSDYYMSWFRQAPGKGLEWVSYISGSGDIIDYADSVKGRFTISRDNAKNSLYLQMNSLRAEDTAVYHCAKEDSRIPGTTDFDNWGQGTLVTVSSHHHHHH
notes: human single VH domain

EC50 [1]: 0.19 nM | Kd [10]: 0.53 nM | koff [10]: 0.00016 s⁻¹ | kon [10]: 310000 M⁻¹ s⁻¹ | EC50 [3]: 0.17 nM
B3: PSMA binding single VH domain antibody 4.1 (VHH)
VHH: EVQLVESGGGVVQPGRSLRLSCAASGFSFSGYGMHWVRQAPGKGLEWVAYISYDGSNKYYADSVKGRFTISRDNSKNTLYLQMNSLRAEDTAVYYCAKDPAWGLRLGESSSYDFDIWGQGTMVTVSS
notes: human single VH domain, PSMA specific
